Laboratory results published in paper PMC9576799, “Discovery of small molecule inhibitors that effectively disrupt IQGAP1-Cdc42 interaction in breast cancer cells” (Scientific Reports, 2022).

Columns and labels:
[1] = target: T1, GST-IQGAP1-C (Homo sapiens, UniProt P46940); test: GST pull-down assay and Western blotting; assay type: binding; conditions: 2 h at 4 °C, Western blot with anti-Cdc42
T1 construct: the C-terminal half of IQGAP1 (comprising amino acids 864–1657) containing a GST-tag; made in house; host or cells: Escherichia coli BL-21
T1 sequence (P46940 864-1657): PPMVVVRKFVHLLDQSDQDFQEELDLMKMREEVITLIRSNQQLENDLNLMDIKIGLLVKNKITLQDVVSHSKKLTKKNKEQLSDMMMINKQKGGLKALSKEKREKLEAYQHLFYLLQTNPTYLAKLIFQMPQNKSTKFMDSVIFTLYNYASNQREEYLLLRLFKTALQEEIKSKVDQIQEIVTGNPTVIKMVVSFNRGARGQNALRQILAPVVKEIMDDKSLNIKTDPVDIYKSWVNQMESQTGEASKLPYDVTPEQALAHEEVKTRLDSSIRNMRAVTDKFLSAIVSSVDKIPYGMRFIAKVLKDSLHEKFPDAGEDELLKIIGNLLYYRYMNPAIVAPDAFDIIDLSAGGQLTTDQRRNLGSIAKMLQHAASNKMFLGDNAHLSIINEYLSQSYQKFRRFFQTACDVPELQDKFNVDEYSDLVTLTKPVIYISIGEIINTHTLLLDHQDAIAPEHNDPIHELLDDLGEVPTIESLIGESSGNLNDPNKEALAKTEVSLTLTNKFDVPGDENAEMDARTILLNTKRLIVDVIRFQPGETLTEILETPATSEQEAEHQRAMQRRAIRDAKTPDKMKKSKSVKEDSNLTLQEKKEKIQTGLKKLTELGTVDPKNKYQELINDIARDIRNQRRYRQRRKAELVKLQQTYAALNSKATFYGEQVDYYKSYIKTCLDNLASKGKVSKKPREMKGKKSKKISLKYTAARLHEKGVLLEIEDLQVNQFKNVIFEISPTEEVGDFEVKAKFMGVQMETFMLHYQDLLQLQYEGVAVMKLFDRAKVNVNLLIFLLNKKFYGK
Protocol: (a) Schematic representation of IQGAP1 protein. The C-terminal half of IQGAP1 (amino acids 864–1657) was used in the HTRF assay. (b) GST pull-down assay. GST-IQGAP1-C was incubated with His-tagged Cdc42-N17 or Cdc42-Q61L for 2 h at 4 °C. GST alone was incubated with Cdc42-Q61L as the negative control. Complexes were isolated using glutathione-Sepharose and resolved by SDS-PAGE. The gel was cut at 70 kDa. The upper part of the gel was stained with Coomassie blue. The lower portion of the gel was transferred to PVDF membrane and probed with anti-Cdc42 antibodies. (c) Scheme of the HTRF assay in 384–well format showing fluorescent labeled GST-IQGAP1-C (donor Europium cryptate, K) and His-Cdc42-Q61L (acceptor XL665). (d) Time resolved fluorescence was detected at 615 and 665 nm on the Biotek Synergy using recombinant proteins. The Y-axis represents the ratio of acceptor to donor emission wavelength multiplied by 10,000. The means and standard errors of two replicates are shown. The green bar (Buffer) indicates samples without His-Cdc42. […] No single label is printed for the pair, so the substance label joins the two printed names.

[2] = target: C-terminal half of IQGAP1 (amino acids 864–1657); parameters: method as in PMID 17984089; conditions: scintillation proximity assay; read-out: equilibrium dissociation constant (Kd) of Cdc42-Q61L binding to IQGAP1 fragment; cited from earlier work

Substance | binding to IQGAP1 in GST pulldown [1] | Kd [2] [nM]
Cdc42-N17: dominant negative Cdc42 mutant, negative control | no detectable binding | –
Cdc42-Q61L: constitutively active Cdc42 mutant construct that binds IQGAP1 with high affinity | binds to the C-terminal region of IQGAP1 | 24 ± 4
